Experimental data: patent CN108948193A (SHANGHAI JIANXIN BIOPHARMACEUTICALS LLC, dated 2018)
Several values for one entry are separate records, joined by “and”; a condition that tells them apart may be missing. Equal values may be shown once. One block for each binder: values may come before it.

How the values were obtained:
[1] = target: T1, TIM3-hFc (human TIM-3 Fc fusion, 货号 TM3-H5258, 北京百普赛斯生物科技有限公司) (human, UniProt Q8TDQ0 22-200); assay: ELISA on TIM3-hFc captured by anti-hFc
T1 construct: also called 人TIM-3; 人TIM-3抗原; not shown: human Fc (hFc) of the bought fusion

[2] = target: TIM3-hFc (human TIM-3 Fc fusion, 货号 TM3-H5258, 北京百普赛斯生物科技有限公司) (human) (UniProt Q8TDQ0); assay: ELISA, hybridoma supernatant on TIM3-hFc captured by anti-hFc
[3] = target: T2, 人Tim-3 (antigen used as analyte in Biacore) (human, UniProt Q8TDQ0 22-200); assay: SPR, Biacore T200, antibody captured by Protein A on CM5, TIM-3 as analyte, 1:1 Langmuir
T2 construct: Soluble antigen flowed at 0-30 nM over antibody captured by Protein A; also called 抗原TIM-3

[4] = target: human TIM-3 on human blood cells (PBMC / NK cells / activated T cells) (human, UniProt Q8TDQ0 22-301); assay: cell-based or functional assay

EC50 [1]: 0.245 nM and 0.13 nM
B1: 对照抗体 ABTIM3 (reference anti-TIM-3 antibody, sequence from WO2015117002A1) (antibody, V domains shown)
VH: QVQLQQPGAELVKPGASVKMSCKASGYTFTSYNMHWIKQTPGQGLEWIGDIYPGNGDTSYNQKFKGKATLTADKSSSTVYMQLSSLTSEDSAVYYCARVGGAFPMDYWGQGTSVTVSS
VL: DIVLTQSPASLAVSLGQRATISCRASESVEYYGTSLMQWYQQKPGQPPKLLIYAASNVESGVPARFSGSGSGTDFSLNIHPVEEDDIAIYFCQQSRKDPSTFGGGTKLEIK

ELISA 数值(OD450) [2]: 1.73 OD450
B2: mab5 (mouse hybridoma clone 6F3, murine anti-human TIM-3 monoclonal antibody) (antibody, V domains shown)
VH: EVKLVESEGGLVQPGGSMKLSCTASGFTFSDYYMAWVRQVPEKGLEWVANINYDGSNTYYLDSLKSRFIISRDNVKNILYLQMSSLKSEDTATYYCARGLYYYGGNYFAYWGQGTLVTVSA
VL: DILMTQSPSSMSVSLGDTVTITCHASQGISSNIGWLQQKPGKSFKGLIYQGSNLEDGVPSRFSGSGSGADYSLTISSLEYEDFADYYCVQFAQFPPTFGAGTKLELK

Kd [3]: 1.76 nM
koff [3]: 0.00244 s⁻¹
kon [3]: 1.39e+06 M⁻¹ s⁻¹
EC50 [1]: 0.107 nM and 0.06 nM
B3: mab5-c (chimeric anti-human TIM-3 antibody, human IgG4-κ) (antibody, V domains shown)
VH: EVKLVESEGGLVQPGGSMKLSCTASGFTFSDYYMAWVRQVPEKGLEWVANINYDGSNTYYLDSLKSRFIISRDNVKNILYLQMSSLKSEDTATYYCARGLYYYGGNYFAYWGQGTLVTVSA
VL: DILMTQSPSSMSVSLGDTVTITCHASQGISSNIGWLQQKPGKSFKGLIYQGSNLEDGVPSRFSGSGSGADYSLTISSLEYEDFADYYCVQFAQFPPTFGAGTKLELKR
notes: Mouse mab5 variable regions on human IgG4 / kappa constant regions; expressed in HEK293E; also called 嵌合抗体mab5-c
killing activity relative to the reference antibody ABTIM3 (fold) [4]: 2.8 倍 (fold)

EC50 [1]: 0.131 nM
B4: 人源化ab8抗体 (humanized anti-TIM-3 antibody ab8) (antibody, IgG4, V domains shown)
VH: EVQLVESGGGLVKPGGSLRLSCAASGFTFSDYYMAWVRQAPGKGLEWVANINYDGSNTYYLDSLKSRFTISRDNAKNSLYLQMNSLRAEDTAVYYCARGLYYYGGNYFAYWGQGTLVTVSS
VL: DIQMTQSPSSLSASVGDRVTITCHASQGISSNIGWLQQKPGKAFKGLIYQGSNLEDGVPSRFSGSGSGTDYTLTISSLQPEDFATYYCVQFAQFPPTFGQGTKLEIKR
notes: Humanized mab5; human kappa / IgG4

EC50 [1]: 0.154 nM
B5: 人源化ab7抗体 (humanized anti-TIM-3 antibody ab7) (antibody, human IgG4 S228P, kappa, V domains shown)
VH: EVQLVESGGGLVKPGGSLRLSCAASGFTFSDYYMAWVRQAPGKGLEWVANINYDGSNTYYLDSLKSRFTISRDNAKNSLYLQMNSLRAEDTAVYYCARGLYYYGGNYFAYWGQGTLVTVSS
VL: DIQMTQSPSSLSASVGDRVTITCHASQGISSNIGWLQQKPGKAFKGLIYQGSNLEDGVPSRFSGSGSGTDFTLTISSLQPEDFATYYCVQFAQFPPTFGQGTKLEIKR
notes: as for B4

EC50 [1]: 0.159 nM
B6: 人源化ab6抗体 (humanized anti-TIM-3 antibody ab6) (antibody, human IgG4 S228P, kappa, V domains shown)
VH: EVQLVESGGGLVKPGGSLRLSCAASGFTFSDYYMAWVRQAPGKGLEWVANINYDGSNTYYLDSLKSRFTISRDNAKNSLYLQMNSLRAEDTAVYYCARGLYYYGGNYFAYWGQGTLVTVSS
VL: DIQMTQSPSSLSASVGDRVTITCHASQGISSNIGWLQQKPGKAFKGLIYQGSNLEDGVPSRFSGSGSGADYTLTISSLQPEDFATYYCVQFAQFPPTFGQGTKLEIKR
notes: as for B4
killing of tumour cells by PBMC/NK cells relative to the reference antibody (fold) [4]: ≥ 2 倍 (fold)
